Consider 2 substances from patent US20250171542A1.

The test concerns the target human PD-L1 expressed on cell surface (human) (UniProt Q9NZQ7). The test is described as follows: cell-based or functional assay.

Sequence of human PD-L1 expressed on cell surface (human) (Q9NZQ7 19-290 limits assumed): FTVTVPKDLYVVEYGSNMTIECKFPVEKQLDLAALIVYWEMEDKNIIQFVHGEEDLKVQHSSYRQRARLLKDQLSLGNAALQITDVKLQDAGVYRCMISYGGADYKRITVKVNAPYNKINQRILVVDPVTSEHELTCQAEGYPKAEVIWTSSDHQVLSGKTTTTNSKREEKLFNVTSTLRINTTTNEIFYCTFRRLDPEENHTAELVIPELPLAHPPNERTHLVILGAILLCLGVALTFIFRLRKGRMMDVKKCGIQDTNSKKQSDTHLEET

As for “SGN-PD-L1 analogue anti-PD-L1 antibody (BioIntron)”, the IC50 (nM), Promega PD-1/PD-L1 blockade reporter assay, another assay is 0.68 nM.

“Atezolizumab analogue (BioIntron) (antibody)” came in with an IC50 (nM), Promega PD-1/PD-L1 blockade reporter assay, another assay of 0.33 nM.
